Assay type in all cases: cell-based, human
The test system of one assay is Fos mRNA. As to the kind of experiment: qPCR of Fos gene expression in pHGG cells. The following applies: 50 nM NLGN3, 1 hour vs vehicle. As for the experimental part: (§1) A) Signaling through the PI3K pathway increases in response to NLGN3. Representative Western blot illustrating increased phosphorylation of AKT in response to various concentrations of NLGN3 ranging from 0-50 nM. p-AKT is shown in top panel; total AKT is shown in the bottom panel. B) Quantification of the increased fold change of pAKT/AKT ratio in response to NLGN3 at various doses (oneway ANOVA, F=17.99, P<001; data shown as mean±SEM; *P<0.05, **P<0.01, ***P<0.001 by Tukey's post-hoc tests to further examine pairwise comparisons). Fold change is normalized to blank media (aCSF). (C) Fos mRNA expression increases after 1 hour exposure to […] 50 nM NLGN3 (data shown as mean±SEM; **P<0.01 by unpaired two-tailed Student's t-test). D) NLGN3 mRNA expression increases after 12 hour exposure to 50 nM NLGN3 vs. vehicle in SU-[…] cells. […]
(§2) After various cell treatments (described in extended experimental procedures), RNA was extracted from 500,000 SU-pcGBM2 or SU-[…] cells using TRIzol reagent. cDNA was generated using RT-PCR, and gene expression changes were further probed using quantitative PCR.
(§3) 500,000 SU-pcGBM2 cells were exposed to either aCSF, 50 nM NLGN3 (Origene Technologies, Rockville), 500 nM BKM120 (SelleckChem, Houston, Tex.), 50 nM EGF (Shenandoah, Warwick, R.I.), or a combination of the above treatments. […] Differential expression was determined using the delta CT method. […]
On the technique in general: Quantitative PCR measures a nucleic acid by following its amplification.

For assay [1], the system named is NLGN3 protein in SU-pcGBM2 cells. Briefly: Western blot of NLGN3 protein expression in glioma cells. To be noted: 50 nM NLGN3 for 12 hours, then 24 hours recovery in fresh media. Here is the method: as §1, with “cells. Data shown as mean±SEM; *P<0.05 by unpaired two-tailed Student's t-test.” for “cells.”
(§4) Endogenous protein levels were determined using Western blot analysis. […]
(§5) Briefly, in FIG. 5, panel A, cells were lysed after 1-hour exposure to 0 nM, 5 nM, 10 nM, or 50 nM recombinant NLGN3 (Origene Technologies, Rockville, Md.), using RIPA buffer and protease inhibitors. […] Protein concentration in the lysate was determined using a Bradford assay. […] Proteins were visualized using Clarity ECL Western Substrate (BioRad, Hercules, Calif.) and quantified using ImageJ.
(In western blotting, separated proteins are transferred to a membrane and probed.)

The subject of the next assay is SU-pcGBM2 cells. As to the kind of experiment: EdU incorporation assay, proliferation index of pHGG cells (SU-pcGBM2).
In assay [2] the test system is mTOR (phospho-4E-BP1 T37/46). As to the kind of experiment: Western blot of phospho-4E-BP1 as reporter of mTOR activity. The following applies: 50 nM NLGN3 vs aCSF. Here is the method:
Top panel, 4E-P1^T37/46; bottom panel, total 4E-BP1. B) Quantification of p4E-BP1T37/46/4E-BP1 ratio fold change after NLGN3 exposure normalized to aCSF control (unpaired two-tailed Student's t-test). C) 50 nM NLGN3-induced increase in SU-pcGBM2 proliferation index (EdU assay) is blocked by inhibition of PI3K by BKM120 (100 nM). […] All experiments performed in n=3 biological replicates. Data shown as mean±SEM. (See also FIG. 34, Table in FIG. 18.)
Endogenous protein levels were determined using Western blot analysis. Briefly, after various treatments, 400,000 SU-pcGBM2 cells were lysed and loaded onto SDS-PAGE gels. Proteins were separated with gel electrophoresis and transferred to a PVDF membrane. Proteins were then probed for various antibodies as described in extended experimental procedures.

The subject of assay [3] is NLGN3 mRNA in SU-DIPGXIII cells. As to the kind of experiment: qPCR of NLGN3 gene expression in DIPG cells. To be noted: 50 nM recombinant NLGN3, 12 hour vs vehicle. Here is the method: as §1, §2, §3
Assay [4] has as its system NLGN3 mRNA in SU-pcGBM2 cells. As to the kind of experiment: qPCR of NLGN3 gene expression in SU-pcGBM2 cells. To be noted: 50 nM recombinant NLGN3, 12 hour vs vehicle.
Assay [5] has as its system PI3K pathway (phospho-AKT). Briefly: Western blot of phospho-AKT as indicator of PI3K pathway activity. To be noted: recombinant NLGN3 0-50 nM, 1 hour. Here is the method: as §1, with “cells. Data shown as mean±SEM; *P<0.05 by unpaired two-tailed Student's t-test.” for “cells.”
as §4, §5

The values below come from patent US10377818B2, “Method of treating glioma” (The Board of Trustees of the Leland Stanford Junior …, priority 2015, dated 2019).

B1: NLGN3: Recombinant full-length neuroligin-3 (Origene), tested as glioma mitogen (protein, listed as Mus musculus)
chain: MWLQPSLSLSPTPTVGRSLCLTLGFLSLVLRASTQAPAPTVNTHFGKLRGARVPLPSEILGPVDQYLGVPYAAPPIGEKRFLPPEPPPSWSGIRNATHFPPVCPQNIHTAVPEVMLPVWFTANLDIVATYIQEPNEDCLYLNVYVPTEDGSGAKKQGEDLADNDGDEDEDIRDSGAKPVMVYIHGGSYMEGTGNMIDGSVLASYGNVIVITLNYRVGVLGFLSTGDQAAKGNYGLLDQIQALRWVSENIAFFGGDPRRITVFGSGIGASCVSLLTLSHHSEGLFQRAIIQSGSALSSWAVNYQPVKYTSLLADKVGCNVLDTVDMVDCLRQKSAKELVEQDIQPARYHVAFGPVIDGDVIPDDPEILMEQGEFLNYDIMLGVNQGEGLKFVEGVVDPEDGVSGTDFDYSVSNFVDNLYGYPEGKDTLRETIKFMYTDWADRDNPETRRKTLVALFTDHQWVEPSVVTADLHARYGSPTYFYAFYHHCQSLMKPAWSDAAHGDEVPYVFGVPMVGPTDLFPCNFSKNDVMLSAVVMTYWTNFAKTGDPNKPVPQDTKFIHTKANRFEEVAWSKYNPRDQLYLHIGLKPRVRDHYRATKVAFWKHLVPHLYNLHDMFHYTSTTTKVPPPDTTHSSHITRRPNGKTWSTKRPAISPAYSNENAPGSWNGDQDAGPLLVENPRDYSTELSVTIAVGASLLFLNVLAFAALYYRKDKRRQEPLRQPSPQRGTGAPELGTAPEEELAALQLGPTHHECEAGPPHDTLRLTALPDYTLTLRRSPDDIPLMTPNTITMIPNSLVGLQTLHPYNTFAAGFNSTGLPHSHSTTRV
Turning to B1, the Fos gene expression entry in the assay on Fos mRNA is “upregulation of Fos gene expression”. Besides, in assay [1], the NLGN3 protein expression result is recorded as “Protein expression of NLGN3 following glioma cell NLGN3 exposure was confirmed”. Moreover, the proliferation index in the assay with SU-pcGBM2 cells (pHGG cells exposed to 50 nM NLGN3, 24 h, EdU) came to 0.40±0.01. The “effect on proliferation index, dose curve” value in the assay on SU-pcGBM2 cells (recombinant NLGN3 0-100 nM, 24 hours) is recorded as “promotes proliferation, matching the mitogenic effect of active CM at low nanomolar concentrations”. For the same molecule, the “effect on proliferation index relative to aCSF control” value in the assay on SU-pcGBM2 cells (recombinant candidate proteins at 100 nM for 24 hours) is listed as “promote glioma cell proliferation”. Further, the “phospho-4E-BP1 T37/46 relative to total 4E-BP1” value in assay [2] was “increase in phospho-4E-BP1^T37/46 relative to total 4E-BP1”. Also, the NLGN3 gene expression entry in assay [3] and in assay [4] was “increase in glioma cell NLGN3 gene expression” throughout. The “phospho-AKT levels relative to total AKT” value in assay [5] is recorded as “increased phospho-AKT levels relative to total AKT in a dose-dependent manner”.
